# Reference: publication PMC11444341 (The journal of physical chemistry. B, 2015)
# Read-outs that look alike come from different tables or passages of the source. Where no end group is shown, it is not given here.
# Experiments:
# calcitonin oligomer = conditions: cited from earlier work
# [1] = cited from earlier work
# [2] = 4 °C, 100 mM DCl (pH 1); cited from earlier work
# [3] = Pyrene fluorescence II/IIII ratio assay for micelle-like oligomer formation; assay type: physicochemical; conditions: pH 7.3, 20 mM phosphate buffer, 50 mM NaCl, 1 μM pyrene, 25 °C
compound,measurement,setting,value
O=C(O[C@@H]1Cc2c(O)cc(O)cc2O[C@@H]1c1cc(O)c(O)c(O)c1)c1cc(O)c(O)c(O)c1 [EGCG],effect on formation of the calcitonin oligomer,calcitonin oligomer,completely abolish
"Aβ1–40: amyloid-beta peptide 1–40, linked to Alzheimer's disease",critical concentration,"[1]; 10 mM phosphate buffer, pH 7.3",8 µM
same,critical concentration,"[1]; 0.1 M Tris, pH 7.4 20 °C",25 µM
same,critical concentration for micelle-like oligomers,[1]; pyrene and surface tension studies,17 µM
same,length of spherocylindrical micelle structures (SANS),[2],11 nm
same,radius of spherocylindrical micelle structures (SANS),[2],2.4 nm
"hIAPP1–19: N-terminal 1–19 fragment of hIAPP, significantly less amyloidogenic than the full-length peptide (KCNTATCATQRLANFLVHS; ends and bridges not checked; cysteine pairing not given here; UniProt P10997 34-52, looked up, fragment)",micelle-like oligomer formation over the concentration range tested (pyrene II/IIII),[3],did not form oligomers
